Source: article PMC8556327
Values joined by “and” are separate entries in the source; they are usually repeats but may differ in a detail not shown here. Equal entries are not always repeated.

Tests used:
[1] = target: C-phycocyanin (αβ) monomer from Thermoleptolyngbya sp. O-77 (TlCPC) (Thermoleptolyngbya sp. O-77); assay: crystal structure; TlCPC-8 crystals (cube), sitting-drop vapor diffusion at 20 °C (also obtained at 42 °C); reservoir 1.6 M sodium chloride, 8% polyethylene glycol 6,000, 20% glycerol; space group I432; 2.77 Å
[2] = target: C-phycocyanin (αβ) monomer from Thermoleptolyngbya sp. O-77 (TlCPC) (Thermoleptolyngbya sp. O-77); assay: cryo-EM structure; TlCPC 6.7 and 10 mg/mL in potassium phosphate buffer (pH 7.0, 10 mM), flash-frozen on holey carbon grid; single particle analysis; hexamers and octamers in the same specimens
[3] = target: C-phycocyanin (αβ) monomer from Thermoleptolyngbya sp. O-77 (TlCPC) (Thermoleptolyngbya sp. O-77); assay: crystal structure; TlCPC-6 crystals (rhombus or rod), sitting-drop vapor diffusion at 20 °C; reservoir 8% Tacsimate (pH 5.0), 20% polyethylene glycol 3,350; 1.65 Å
[4] = target: C-phycocyanin (αβ) monomer from Thermoleptolyngbya sp. O-77 (TlCPC) (Thermoleptolyngbya sp. O-77); assay: AUC; sedimentation velocity, TlCPC 0.92 mg/mL in potassium phosphate buffer (pH 7.0, 10 mM), 20 °C, 60,000 rpm, absorbance at 277 nm, c(s) distribution (SEDFIT); major species 5.24 S, minor species 3.15 S (monomer), 7.97 S and 11.32 S

stoichiometry N [1]: 8
stoichiometry N [2]: 6 and 8
stoichiometry N [3]: 6
stoichiometry N [4]: 2 and 6 and 4
Substance: C-phycocyanin (αβ) monomer from Thermoleptolyngbya sp. O-77 (TlCPC) (complex)
